Article PMC6989803, “Synechocystis KaiC3 Displays Temperature- and KaiB-Dependent ATPase Activity and Is Important for Growth in Darkness” (Journal of Bacteriology, 2019)

Legend:
[1] = biological target: KaiC3 wild-type protein fused to an N-terminal Strep-tag (Synechocystis sp. strain PCC 6803); experiment: SEC; Strep-KaiC3 on Sephacryl S300 HR HiPrep 16/60; 20 or 50 mM Tris-HCl (pH 8.0), 150 mM NaCl, 2 mM DTT, 1 mM ATP, 5 mM MgCl2
[2] = biological target: the molecule itself; experiment: SEC; KaiB1 and KaiB3 on Sephacryl S200 HR HiPrep 16/60 or Superdex 200 Increase 10/30 GL; 20 or 50 mM Tris-HCl (pH 8.0), 150 mM NaCl, 2 mM DTT

KaiC3 wild-type protein fused to an N-terminal Strep-tag (enzyme)
stoichiometry N [1]: 6

B1: KaiB3, recombinant, GST tag cleaved off (natural protein, Synechocystis sp. strain PCC 6803, UniProt Q55819 1-102, looked up)
chain: MDMNRIVLRLYITGNSVRSQQAIANIYRICQEDLGDQYNVEIIDVLEQPQRAEEEKIMVTPTLIKQLPPPLQRIIGDMSNTEKVLLGLDIVPEGLQVRLPED
notes: Eluted as a monomer and as a tetramer; the two fractions were tested separately in the ATPase assay; also called KaiB3 monomer; KaiB3 tetramer
stoichiometry N [2]: 4

B2: KaiB1, recombinant, GST tag cleaved off (natural protein, Synechocystis sp. strain PCC 6803, UniProt P74645 1-105, looked up)
chain: MSPFKKTYVLKLYVAGNTPNSVRALKMLKNILEQEFQGVYALKVIDVLKNPQLAEEDKILATPTLAKILPPPVRKIIGDLSDREKVLIGLDLLYDEIREREAEDQ
notes: Eluted only as a tetramer from size exclusion chromatography; also called KaiB1 tetramer
stoichiometry N [2]: 4
